# Source: patent US20220074941A1, “HSP90 COMBINATION THERAPY” (Sloan-Kettering Institute for Cancer Research, priority 2011, published 2022)
# B1: NUP160 (protein, UniProt Q12769 1-1436, looked up)
# Nuclear pore complex protein …: MLHLSAAPPAPPPEVTATARPCLCSVGRRGDGGKMAAAGALERSFVELSGAERERPRHFREFTVCSIGTANAVAGAVKYSESAGGFYYVESGKLFSVTRNRFIHWKTSGDTLELMEESLDINLLNNAIRLKFQNCSVLPGGVYVSETQNRVIILMLTNQTVHRLLLPHPSRMYRSELVVDSQMQSIFTDIGKVDFTDPCNYQLIPAVPGISPNSTASTAWLSSDGEALFALPCASGGIFVLKLPPYDIPGMVSVVELKQSSVMQRLLTGWMPTAIRGDQSPSDRPLSLAVHCVEHDAFIFALCQDHKLRMWSYKEQMCLMVADMLEYVPVKKDLRLTAGTGHKLRLAYSPTMGLYLGIYMHAPKRGQFCIFQLVSTESNRYSLDHISSLFTSQETLIDFALTSTDIWALWHDAENQTVVKYINFEHNVAGQWNPVFMQPLPEEEIVIRDDQDPREMYLQSLFTPGQFTNEALCKALQIFCRGTERNLDLSWSELKKEVTLAVENELQGSVTEYEFSQEEFRNLQQEFWCKFYACCLQYQEALSHPLALHLNPHTNMVCLLKKGYLSFLIPSSLVDHLYLLPYENLLTEDETTISDDVDIARDVICLIKCLRLIEESVTVDMSVIMEMSCYNLQSPEKAAEQILEDMITIDVENVMEDICSKLQEIRNPIHAIGLLIREMDYETEVEMEKGFNPAQPLNIRMNLTQLYGSNTAGYIVCRGVHKIASTRFLICRDLLILQQLLMRLGDAVIWGTGQLFQAQQDLLHRTAPLLLSYYLIKWGSECLATDVPLDTLESNLQHLSVLELTDSGALMANRFVSSPQTIVELFFQEVARKHIISHLFSQPKAPLSQTGLNWPEMITAITSYLLQLLWPSNPGCLFLECLMGNCQYVQLQDYIQLLHPWCQVNVGSCRFMLGRCYLVTGEGQKALECFCQAASEVGKEEFLDRLIRSEDGEIVSTPRLQYYDKVLRLLDVIGLPELVIQLATSAITEAGDDWKSQATLRTCIFKHHLDLGHNSQAYEALTQIPDSSRQLDCLRQLVVVLCERSQLQDLVEFPYVNLHNEVVGIIESRARAVDLMTHNYYELLYAFHIYRHNYRKAGTVMFEYGMRLGREVRTLRGLEKQGNCYLAALNCLRLIRPEYAWIVQPVSGAVYDRPGASPKRNHDGECTAAPTNRQIEILELEDLEKECSLARIRLTLAQHDPSAVAVAGSSSAEEMVTLLVQAGLFDTAISLCQTFKLPLTPVFEGLAFKCIKLQFGGEAAQAEAWAWLAANQLSSVITTKESSATDEAWRLLSTYLERYKVQNNLYHHCVINKLLSHGVPLPNWLINSYKKVDAAELLRLYLNYDLLEEAVDLVSEYVDAVLGKGHQYFGIEFPLSATAPMVWLPYSSIDQLLQALGENSANSHNIALSQKILDKLEDYQQKVDKATRDLLYRRTL
# B2: LRRC40 (protein, UniProt Q9H9A6 1-602, looked up)
# Leucine-rich …: MSRLKRIAGQDLRAGFKAGGRDCGTSVPQGLLKAARKSGQLNLSGRNLSEVPQCVWRINVDIPEEANQNLSFGATERWWEQTDLTKLIISNNKLQSLTDDLRLLPALTVLDIHDNQLTSLPSAIRELENLQKLNVSHNKLKILPEEITNLRNLKCLYLQHNELTCISEGFEQLSNLEDLDLSNNHLTTVPASFSSLSSLVRLNLSSNELKSLPAEINRMKRLKHLDCNSNLLETIPPELAGMESLELLYLRRNKLRFLPEFPSCSLLKELHVGENQIEMLEAEHLKHLNSILVLDLRDNKLKSVPDEIILLRSLERLDLSNNDISSLPYSLGNLHLKFLALEGNPLRTIRREIISKGTQEVLKYLRSKIKDDGPSQSESATETAMTLPSESRVNIHAIITLKILDYSDKQATLIPDEVFDAVKSNIVTSINFSKNQLCEIPKRMVELKEMVSDVDLSFNKLSFISLELCVLQKLTFLDLRNNFLNSLPEEMESLVRLQTINLSFNRFKMLPEVLYRIFTLETILISNNQVGSVDPQKMKMMENLTTLDLQNNDLLQIPPELGNCVNLRTLLLDGNPFRVPRAAILMKGTAAILEYLRDRIPT
# B3: NOP14 (protein, UniProt P78316 1-857, looked up)
# Nucleolar protein 14: MAKAKKVGARRKASGAPAGARGGPAKANSNPFEVKVNRQKFQILGRKTRHDVGLPGVSRARALRKRTQTLLKEYKERDKSNVFRDKRFGEYNSNMSPEEKMMKRFALEQQRHHEKKSIYNLNEDEELTHYGQSLADIEKHNDIVDSDSDAEDRGTLSAELTAAHFGGGGGLLHKKTQQEGEEREKPKSRKELIEELIAKSKQEKRERQAQREDALELTEKLDQDWKEIQTLLSHKTPKSENRDKKEKPKPDAYDMMVRELGFEMKAQPSNRMKTEAELAKEEQEHLRKLEAERLRRMLGKDEDENVKKPKHMSADDLNDGFVLDKDDRRLLSYKDGKMNVEEDVQEEQSKEASDPESNEEEGDSSGGEDTEESDSPDSHLDLESNVESEEENEKPAKEQRQTPGKGLISGKERAGKATRDELPYTFAAPESYEELRSLLLGRSMEEQLLVVERIQKCNHPSLAEGNKAKLEKLFGFLLEYVGDLATDDPPDLTVIDKLVVHLYHLCQMFPESASDAIKFVLRDAMHEMEEMIETKGRAALPGLDVLIYLKITGLLFPTSDFWHPVVTPALVCLSQLLTKCPILSLQDVVKGLFVCCLFLEYVALSQRFIPELINFLLGILYIATPNKASQGSTLVHPFRALGKNSELLVVSAREDVATWQQSSLSLRWASRLRAPTSTEANHIRLSCLAVGLALLKRCVLMYGSLPSFHAIMGPLQALLTDHLADCSHPQELQELCQSTLTEMESQKQLCRPLTCEKSKPVPLKLFTPRLVKVLEFGRKQGSSKEEQERKRLIHKHKREFKGAVREIRKDNQFLARMQLSEIMERDAERKRKVKQLFNSLATQEGEWKALKRKKFKK
# B4: PRPF3 (protein, UniProt O43395 1-683, looked up)
# U4/U6 small nuclear …: MALSKRELDELKPWIEKTVKRVLGFSEPTVVTAALNCVGKGMDKKKAADHLKPFLDDSTLRFVDKLFEAVEEGRSSRHSKSSSDRSRKRELKEVFGDDSEISKESSGVKKRRIPRFEEVEEEPEVIPGPPSESPGMLTKLQIKQMMEAATRQIEERKKQLSFISPPTPQPKTPSSSQPERLPIGNTIQPSQAATFMNDAIEKARKAAELQARIQAQLALKPGLIGNANMVGLANLHAMGIAPPKVELKDQTKPTPLILDEQGRTVDATGKEIELTHRMPTLKANIRAVKREQFKQQLKEKPSEDMESNTFFDPRVSIAPSQRQRRTFKFHDKGKFEKIAQRLRTKAQLEKLQAEISQAARKTGIHTSTRLALIAPKKELKEGDIPEIEWWDSYIIPNGFDLTEENPKREDYFGITNLVEHPAQLNPPVDNDTPVTLGVYLTKKEQKKLRRQTRREAQKELQEKVRLGLMPPPEPKVRISNLMRVLGTEAVQDPTKVEAHVRAQMAKRQKAHEEANAARKLTAEQRKVKKIKKLKEDISQGVHISVYRVRNLSNPAKKFKIEANAGQLYLTGVVVLHKDVNVVVVEGGPKAQKKFKRLMLHRIKWDEQTSNTKGDDDEESDEEAVKKTNKCVLVWEGTAKDRSFGEMKFKQCPTENMAREHFKKHGAEHYWDLALSESVLESTD
# B5: NUP85 (protein, UniProt Q9BW27 1-656, looked up)
# Nuclear pore complex protein …: MEELDGEPTVTLIPGVNSKKNQMYFDWGPGEMLVCETSFNKKEKSEMVPSCPFIYIIRKDVDVYSQILRKLFNESHGIFLGLQRIDEELTGKSRKSQLVRVSKNYRSVIRACMEEMHQVAIAAKDPANGRQFSSQVSILSAMELIWNLCEILFIEVAPAGPLLLHLLDWVRLHVCEVDSLSADVLGSENPSKHDSFWNLVTILVLQGRLDEARQMLSKEADASPASAGICRIMGDLMRTMPILSPGNTQTLTELELKWQHWHEECERYLQDSTFATSPHLESLLKIMLGDEAALLEQKELLSNWYHFLVTRLLYSNPTVKPIDLHYYAQSSLDLFLGGESSPEPLDNILLAAFEFDIHQVIKECSIALSNWWFVAHLTDLLDHCKLLQSHNLYFGSNMREFLLLEYASGLFAHPSLWQLGVDYFDYCPELGRVSLELHIERIPLNTEQKALKVLRICEQRQMTEQVRSICKILAMKAVRNNRLGSALSWSIRAKDAAFATLVSDRFLRDYCERGCFSDLDLIDNLGPAMMLSDRLTFLGKYREFHRMYGEKRFADAASLLLSLMTSRIAPRSFWMTLLTDALPLLEQKQVIFSAEQTYELMRCLEDLTSRRPVHGESDTEQLQDDDIETTKVEMLRLSLARNLARAIIREGSLEGS
# B6: PRPF31 (protein, UniProt Q8WWY3 1-499, looked up)
# U4/U6 small nuclear …: MSLADELLADLEEAAEEEEGGSYGEEEEEPAIEDVQEETQLDLSGDSVKTIAKLWDSKMFAEIMMKIEEYISKQAKASEVMGPVEAAPEYRVIVDANNLTVEIENELNIIHKFIRDKYSKRFPELESLVPNALDYIRTVKELGNSLDKCKNNENLQQILTNATIMVVSVTASTTQGQQLSEEELERLEEACDMALELNASKHRIYEYVESRMSFIAPNLSIIIGASTAAKIMGVAGGLTNLSKMPACNIMLLGAQRKTLSGFSSTSVLPHTGYIYHSDIVQSLPPDLRRKAARLVAAKCTLAARVDSFHESTEGKVGYELKDEIERKFDKWQEPPPVKQVKPLPAPLDGQRKKRGGRRYRKMKERLGLTEIRKQANRMSFGEIEEDAYQEDLGFSLGHLGKSGSGRVRQTQVNEATKARISKTLQRTLQKQSVVYGGKSTIRDRSSGTASSVAFTPLQGLEIVNPQAAEKKVAEANQKYFSSMAEFLKVKGEKSGLMST
# Test system: Hsp90 complexes in K562 cell extract
# Experiment: Nano-LC-MS/MS of PU-beads pull-downs
# Format: binding
# Conditions: protein identified in PU-beads pull-down of K562 cell extract, Prep 1; QSTAR-Elite QTof MS
# Outline: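 Lysates pre-cleared overnight at 4 °C with control beads, then pulled down with PU-beads or control beads; eluted proteins (2% SDS boil) gel-separated and analysed by nano LC-MS/MS on a QTof. Mascot identification (p<0.05), spectral counts and sequence coverage evaluated in Scaffold.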
row,Molecule,"Number of Assigned Spectra, K562 Prep 1"
1,B1,13
2,B2,4
3,B3,9
4,B4,3
5,B5,14
6,B6,3

# Same assay, conditions: protein identified in PU-beads pull-down of K562 cell extract, Prep 2; QSTAR-Elite QTof MS
row,Molecule,"Number of Assigned Spectra, K562 Prep 2"
1,B1,1
2,B2,3
3,B3,2
4,B4,0
5,B5,2
6,B6,2

# Test system: Hsp90 complexes in Mia-PaCa-2 cell extract
# Experiment: Nano-LC-MS/MS of PU-beads pull-downs
# Format: binding, human
# Conditions: protein identified in PU-beads pull-down of Mia-PaCa-2 cell extract; QSTAR-Elite QTof MS
# Outline: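 Lysates pre-cleared overnight at 4 °C with control beads underwent PU-bead pull-down; bound proteins were SDS-eluted, gel-separated, digested and analyzed by nano-LC-MS/MS on a QTof. Identifications used significance p<0.05, 0.4 Da tolerances and one missed cleavage; unique peptide (spectral) counts and sequence coverage were reported.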
row,Molecule,"Number of Assigned Spectra, Mia-Paca 2"
1,B1,0
2,B2,0
3,B3,0
4,B4,0
5,B5,0
6,B6,0
